The values that follow come from PMC6035275, “Structures of DNA-bound human ligase IV catalytic core reveal insights into substrate binding and catalysis”.

For data set [1], the target named is T1, DNA ligase IV catalytic domain (lysyl-AMP at K273 in open complex) (human, UniProt P49917 1-620).
T1 sequence: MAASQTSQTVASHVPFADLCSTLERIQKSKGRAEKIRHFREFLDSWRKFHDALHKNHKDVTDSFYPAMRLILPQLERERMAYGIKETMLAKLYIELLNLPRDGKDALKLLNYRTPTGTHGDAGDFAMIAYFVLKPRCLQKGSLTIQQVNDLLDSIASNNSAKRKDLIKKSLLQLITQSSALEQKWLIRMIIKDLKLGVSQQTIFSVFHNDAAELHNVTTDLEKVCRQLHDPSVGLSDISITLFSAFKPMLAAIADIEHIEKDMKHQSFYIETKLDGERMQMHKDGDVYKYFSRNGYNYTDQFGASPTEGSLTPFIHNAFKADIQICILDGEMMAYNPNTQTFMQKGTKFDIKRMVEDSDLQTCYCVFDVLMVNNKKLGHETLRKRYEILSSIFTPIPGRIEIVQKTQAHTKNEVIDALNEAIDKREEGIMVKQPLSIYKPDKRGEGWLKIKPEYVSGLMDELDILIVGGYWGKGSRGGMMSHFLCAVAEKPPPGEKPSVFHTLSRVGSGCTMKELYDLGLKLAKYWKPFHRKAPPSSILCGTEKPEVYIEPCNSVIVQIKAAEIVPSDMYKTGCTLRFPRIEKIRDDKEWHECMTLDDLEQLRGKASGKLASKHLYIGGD
Kind of data set: X-ray crystallography; DNA-adenylate, closed conformation, no metal bound; Crystals: protein pre-incubated with 4 mM MgCl2, 1 mM ATP, 1 h on ice, DNA added at 2:1 molar ratio, 1 h on ice; HEPES pH 7.5 (77-79 mM), ~7.8% isopropanol, ~15.5% PEG4000, ~13.6% glycerol, +/- 10 mM MgCl2, room temperature. Mutants only tested by ligation turnover (no binding read-out). Conditions: protein: recombinant; tags: 6xHis-SUMO, removed with Ulp1; nicked duplex, 18 bp, blunt ends; nick between strand 2 (11 nt) and strand 3 (7 nt).

Data set [2] addresses T1, DNA ligase IV catalytic domain …. Kind of data set: X-ray crystallography; lysyl-AMP (K273), open conformation, 10 mM MgCl2; 3.25 A; Crystals: protein pre-incubated with 4 mM MgCl2, 1 mM ATP, 1 h on ice, DNA added at 2:1 molar ratio, 1 h on ice; HEPES pH 7.5 (77-79 mM), ~7.8% isopropanol, ~15.5% PEG4000, ~13.6% glycerol, +/- 10 mM MgCl2, room temperature. Mutants only tested by ligation turnover (no binding read-out). The settings on record: protein: recombinant; tags: 6xHis-SUMO, removed with Ulp1; nicked duplex, 18 bp, blunt ends; nick between strand 2 (11 nt) and strand 3 (7 nt).

B1: nicked DNA-adenylate duplex (crystal), 5'-AMP downstream primer (dsDNA)
DNA 1: GTCCGACGACGCATCAGC
DNA 2: GCTGATGCGTC
DNA 3: GTCGGAC
modifications: upstream primer 3'-dideoxycytidine; downstream primer 5'-adenylated (AMP-p, transferred from K273 in the complex)
On to B1, for which, in data set [1], the binding result is “binds”.

B2: nicked DNA duplex (crystal), 5'-phosphate downstream primer (dsDNA)
DNA 1: GTCCGACGACGCATCAGC
DNA 2: GCTGATGCGTC
DNA 3: GTCGGAC
modifications: upstream primer 3'-dideoxycytidine; downstream primer 5'-phosphate
Turning to B2, the binding result in data set [2] is reported as “binds”.
